The record followed here is patent US9725702B2, “Laccase from ganoderma lucidum capable of enhancing enzymatic degradation of lignocellulolytic biomass” (DANMARKS TEKNISKE UNIVERSITET, priority 2012, dated 2017).

The nature of test [1]: Substrate specificity of laccase (relative rate of product formation). The format is biochemical. As to the method:
The laccase activity was measured based on a modified method of Ters et al. (2009). The laccase activity was defined as the amount of the enzyme required to oxidise 1 μmol of ABTS per minute at 25° C., and pH 4.7. The assay mixture contained: 0.1 M citrate-phosphate buffer (255 μL, pH 4.7), ABTS (5 μL, 4 mM (ABTS stock solution)), and pre-diluted laccase (5 μL) that ensured the linear range of Michaelis-Menten kinetics. The oxidation of ABTS was monitored at 420 nm (ε420=36800 M^−1cm^−1) for 2 min. in an Infinite 200 microtiter plate reader (Tecan, Salzburg, Austria). Laccase activity assays on the substrates: hydroquinone (248 nm), 2.6-dimethoxyphenol (470 nm), and guaiacol (436 nm) was done similarly with the substrate concentration as described in Table 2 using the following extinction coefficient values: 17.542 M^−1cm^−1, 35.645 M^−1cm^−1, and 6.400 M^−1cm^−1, respectively (Minussi et al. 2007). The data collection was monitored by the program Tecan i-control version 1.5.14.0 (Tecan, Salzburg, Austria). The calculated laccase activity was corrected by the absorbance of a control sample which contained: 0.1 M citrate-phosphate buffer (255 μL, pH 4.7), ABTS (5 μL, 4 mM), and 5 μL of distilled water instead of the enzyme. All determinations of the laccase activity were performed in duplicates, with an average sample standard deviation less than 5%.
LacGL1 laccase was able to oxidize both ABTS and other phenolic compounds (Table 5) such as: hydroquinone, guaiacol, and 2.6-dimethoxyphenol, however in a slower rate than for ABTS.

Test [2] in a line: Glucose release in LacGL1-cellulase (Cellic CTec1, CTec2) catalyzed hydrolysis of STEX SCB. The format is biochemical. Here is the method:
FIG. 11. A graphical comparison of yields of released glucose over time in LacGL1-Cellic® CTec1 catalyzed hydrolysis STEX-SCB at different pH and temperatures. The cellulase preparation is Cellic® CTec1 (CC1) and laccase was Ganoderma lucidum LacGL1 expressed in Pichia pastoris X-33. CC1 and LacGL1 were added in E/S ratio of 0.064%, and 0.4% (w/w), respectively.
FIG. 12. A graphical comparison of the yields of released glucose over time in LacGL1-Cellic® CTec2 catalyzed hydrolysis of STEX-SCB at different pH and temperatures. The cellulase preparation is Cellic® CTec2 (CC2) and laccase was Ganoderma lucidum LacGL1 expressed in Pichia pastoris X-33. […] and LacGL1 were added in E/S ratio of 0.064%, and 0.4% (w/w), respectively.
5% (w/v) dry matter of pretreated SCB (STEX SCB) was evaluated in 0.1 M citrate-phosphate buffer at pH 4.7 and 40° C. (optimal for the LacGL1 laccase) or pH 5.1 and 50° C. (optimal for the cellulase preparations), respectively. The commercially available cellulase cocktail preparations: Cellic® CTec1 and Cellic® CTec2 (0.064% Enzyme/Substrate ratio (E/S), w/w; Novozymes, Bagsværd, Denmark) were used with the combination of the LacGL1 laccase (0.4% E/S, w/w). The hydrolysis reactions were collected after 0, 1, 3, 5, 16, and 24 hours and stopped by incubation at 99° C. for 15 min. The samples were then centrifuged at 10.000 rpm for 2 min., the supernatants were filtered through 0.2 μm filter and the yields of released glucose were quantified using the D-glucose-HK kit (Megazyme, Denmark). The glucose yields released over time were corrected for the glucose content of the hydrolysis sample at time 0. The E/S dosage was based on the total protein concentration used. The protein quantification was performed using the Pierce BCA (BiCinchoninic Acid) protein assay kit microplate procedure according to manufacturer's instructions (Thermo Fisher Scientific, Rockford, US) using Bovine serum albumin (BSA) was used as a standard, as described before (Silva et al. 2011). The Cellic® CTec1 (CC1) and Cellic® CTec2 (CC2), cellulase preparations, are based on the Trichoderma reesei cellulase complex (exo-glucanase, endo-glucanase, and β-glucosidase activities) with additional β-glucosidase and glycoside hydrolase family 61 hydrolyse boosting proteins (Harris 2010). All determinations of the enzymatic hydrolysis samples were performed in duplicates.
Release of glucose during cellulose hydrolysis of STEX SCB is enhanced by the addition of LacGL1 laccase in a dosage dependent manner (data not shown). The combined laccase plus cellulase treatment of STEX SCB were performed at two different conditions: Firstly, at […], 40° C. which is optimal for the LacGL1 laccase (as previously shown from MODDE pH-temp.-activity model, FIG. 8 and thermal stability plots, FIGS. 9, 10), which are slightly less optimal for cellulases; and secondly at 50° C. and pH 5.1, which are the golden standard conditions for optimal performance of CC1 and CC2. From the MODDE data, […]: the type of the cellulase preparation, the addition of LacGL1, the temperature, and the pH of the reaction (FIG. 11, 12). Overall, the highest rate of STEX SCB hydrolysis, considering all of the aforementioned factors, was obtained for the combination of LacGL1-Cellic® CTec2 at pH 5.1 and 50° C. […] The higher pH and temperature enhanced LacGL1-CC2 catalyzed hydrolysis by 12% (FIG. 12).

B1: LacGL1: Fungal laccase from Ganoderma lucidum CBS229.93 (SEQ ID NO: 5/9), recombinantly expressed in Pichia pastoris X-33 (protein, listed as Ganoderma lucidum)
chain: GIGPKTDLTISNADVAPDGYTRAAVVVNGVFPAPLITGNKGDRFQLNVIDQMTNHTMLKSTSIHWHGFFQKGTNWADGPAFINQCPISSGHSFLYDFQVPDQAGTFWYHSHLSTQYCDGLRGPFVVYDPKDPLKKLYDIDDDSTVITLTDWYHVAARLGPRFPLGSDSTLINGLGRSTTNVTADLAVINVTQGKRYRFRLVSLSCDPNYTFSIDDHNMTVIEADGIETQPVTVNAIQIFSAQRYSFVLTANQTIDNYWIRANPNFGNVGFTDGINSAILRYAGADPVEPTTSQQTTQNLLNEVDLHPFVPKRTPGQPTQGGVDTAINMVFNFNGSNFFINNASFVPPTVPVLLQILSGAQAAQDLLPSGSVYTLPVNKSIELTFPATANAPGAPHPFHLHGHAFAVVRSAGSTVYNYDNPVWRDVVSTGTPAAGDNVTIRFQTDNPGPWFLHCHIDFHLEAGFAVVFAEDPTDTSLANPVPKAWSDLCPTYDALSVDDQ
modifications: mat_peptide (1)..(499) Mature LacGL1 laccase (minus signal peptide)
B1: the “Laccase relative rate of product formation” value worked out at 61% in test [1] (substrate 2.6-Dimethoxyphenol 1 mM), 100% in test [1] (substrate ABTS 1 mM), 66% in test [1] (substrate Guaiacol 1 mM) and 80% in test [1] (substrate Hydroquinone 1 mM). For the same molecule, in test [2] (LacGL1-CC1 at pH 4.6, 40° C.), the “improvement in glucose yields over CC1 at pH 5.1 and 50° C.” value amounted to 66%. The “improvement in glucose yields over LacGL1-CC1 at pH 5.1 and 50° C.” value in test [2] (LacGL1-CC1 at pH 4.6, 40° C.) is 48%. The “total glucose yield higher than CC2 alone” value was determined as 27.5% in test [2] (LacGL1-Cellic CTec2 at pH 5.1, 50° C. vs CC2 alone at pH 4.6, 40° C.) and 19% in test [2] (LacGL1-Cellic CTec2 at pH 5.1, 50° C. vs CC2 alone under the same conditions). In addition, the “enhancement of CC1 mediated-hydrolysis” value in test [2] (pH 4.6, 40° C.) came to 30%. Besides, in test [2] (pH 5.1, 50° C. vs pH 4.6, 40° C.), the “enhancement of LacGL1-CC2 catalyzed hydrolysis by higher pH and temperature” value was 12%.
